The labels stand for the following.
B2: dehydrodolichyl diphosphate synthase (DHDDS), residues 1 to 333 (enzyme)
chain: MSWIKEGELSLWERFCANIIKAGPMPKHIAFIMDGNRRYAKKCQVERQEGHSQGFNKLAETLRWCLNLGILEVTVYAFSIENFKRSKSEVDGLMDLARQKFSRLMEEKEKLQKHGVCIRVLGDLHLLPLDLQELIAQAVQATKNYNKCFLNVCFAYTSRHEISNAVREMAWGVEQGLLDPSDISESLLDKCLYTNRSPHPDILIRTSGEVRLSDFLLWQTSHSCLVFQPVLWPEYTFWNLFEAILQFQMNHSVLQKARDMYAEERKRQQLERDQATVTEQLLREGLQASGDAQLRRTRLHKLSARREERVQGFLQALELKRADWLARLGTASA

Data set [1] concerns the target T1, shcis-PT (soluble human cis-prenyltransferase complex, DHDDS-NgBR) (Homo sapiens, UniProt Q86SQ9).
T1 sequence (Q86SQ9 1-333): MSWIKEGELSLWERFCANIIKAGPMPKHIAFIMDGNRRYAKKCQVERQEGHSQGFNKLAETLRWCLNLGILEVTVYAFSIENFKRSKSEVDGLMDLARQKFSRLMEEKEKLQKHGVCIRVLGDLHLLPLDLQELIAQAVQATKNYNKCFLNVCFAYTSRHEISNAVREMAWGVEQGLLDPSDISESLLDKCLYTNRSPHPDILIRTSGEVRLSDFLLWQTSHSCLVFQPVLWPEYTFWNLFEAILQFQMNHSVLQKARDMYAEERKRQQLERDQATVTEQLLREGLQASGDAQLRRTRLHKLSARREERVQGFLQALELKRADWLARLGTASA
T1 sequence (Q96E22 73-293 partner): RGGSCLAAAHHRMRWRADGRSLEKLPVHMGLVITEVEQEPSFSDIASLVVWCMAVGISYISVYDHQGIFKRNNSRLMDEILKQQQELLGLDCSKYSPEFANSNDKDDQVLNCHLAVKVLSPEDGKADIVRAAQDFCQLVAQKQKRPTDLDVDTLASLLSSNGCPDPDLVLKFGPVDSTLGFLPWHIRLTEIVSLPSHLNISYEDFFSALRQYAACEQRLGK
Briefly: displacement of MANT-O-GPP followed by FRET. The format is binding. The settings on record: competition with 10 μM MANT-O-GPP; pH 7.5, 0.5 mM MgCl2, 1 μM enzyme; S1 site.

The target in data set [2] is B2. Put plainly: crystal structure.
The data set “crystal structure” concerns the molecule itself. Put plainly: crystal structure.

The term IC50 denotes the concentration that inhibits the measured activity by half. Lower therefore signals inhibition by little substance. On to `CC(C)=CCC/C(C)=C/CC/C(C)=C/CO[P@@](=O)(O)OP(=O)(O)O` [FPP], for which the IC50 in data set [1] worked out at 10.5 ± 3 µM.

B1: Nogo B-receptor (NgBR), pseudo cis-prenyltransferase domain, residues 73 to 293 lacking residues 167 to 175 (domain or fragment)
chain: RGGSCLAAAHHRMRWRADGRSLEKLPVHMGLVITEVEQEPSFSDIASLVVWCMAVGISYISVYDHQGIFKRNNSRLMDEILKQQQELLGLDCSKDKDDQVLNCHLAVKVLSPEDGKADIVRAAQDFCQLVAQKQKRPTDLDVDTLASLLSSNGCPDPDLVLKFGPVDSTLGFLPWHIRLTEIVSLPSHLNISYEDFFSALRQYAACEQRLGK
On to B1, for which the binding result in data set [2] is “binds”. Turning to B2, in the data set “crystal structure”, the binding result is listed as “binds”.

For the origin of these results see paper PMC9116609 (Science Advances, 2022).
